Measured values taken from patent publication US20240262922A1 (Merck KGaA, published 2024).
Changes are numbered by the printed parent chain.

T1: recombinant human OX40L protein (R&D Systems, cat. #1054-OX) (human, UniProt P23510 51-183)
T1 sequence: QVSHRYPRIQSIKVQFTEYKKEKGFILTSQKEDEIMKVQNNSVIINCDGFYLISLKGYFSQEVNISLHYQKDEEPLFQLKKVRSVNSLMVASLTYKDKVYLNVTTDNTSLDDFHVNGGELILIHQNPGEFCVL

T2: AVI-GST-His6-hOX40L (human, UniProt P23510 51-183)
T2 sequence: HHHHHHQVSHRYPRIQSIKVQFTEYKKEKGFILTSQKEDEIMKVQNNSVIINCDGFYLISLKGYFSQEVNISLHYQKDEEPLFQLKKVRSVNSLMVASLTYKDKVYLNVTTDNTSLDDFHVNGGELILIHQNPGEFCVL

B1: 98E10 (FcFab) (antibody)
heavy: EPKSSDKTHTCPPCPAPPVAGPSVFLFPPKPKDTLMISRTPEVTCVVVDVSHEDPEVKFNWYVDGVEVHNAKTKPREEQYNSTYRVVSVLTVLHQDWLNGKEYKCAVSNKALPSSIEKTISKAKGQPREPQVYTLPPSREEMTKNQVSLTCLVKGFYPSDIAVEWESNGQPENNYKTTPPVLDSDGSFFLYSKLTVDKSRWQQGNVFSCSVMHEALHNHYTQKSLSLSPGAGGGGSGGGGSGGGGSQLQLQESGPGLVKPSETLSLTCTVAGASVSSSSYYWGWIRQSPGKGLEWIGTINYGGSTYHNPSLKRRVTVSVDTSKNQFSLKLTSVTAADTAVYYCARHRGIYHFDYWGQGTLVTVSSASTKGPSVFPLAPSSKSTSGGTAALGCLVKDYFPEPVTVSWNSGALTSGVHTFPAVLQSSGLYSLSSVVTVPSSSLGTQTYICNVNHKPSNTKVDKRVEPKSC
light: SYELTQPLSVSVALGQTARITCGGNNIENKNVHWYQQMPGQAPVLVIYRDSNRPSGIPERFSGSNSGNTATLTINRAQAGDEADYYCQVWDSNTVVFGGGTKVTVLGQPKAAPSVTLFPPSSEELQANKATLVCLISDFYPGAVTVAWKADSSPVKAGVETTTPSKQSNNKYAASSYLSLTPEQWKSHKSYSCQVTHEGSTVEKTVAPTECS
B2: 68F03 (FcFab) (antibody)
chain 1: EPKSSDKTHTCPPCPAPPVAGPSVFLFPPKPKDTLMISRTPEVTCVVVDVSHEDPEVKFNWYVDGVEVHNAKTKPREEQYNSTYRVVSVLTVLHQDWLNGKEYKCAVSNKALPSSIEKTISKAKGQPREPQVYTLPPSREEMTKNQVSLTCLVKGFYPSDIAVEWESNGQPENNYKTTPPVLDSDGSFFLYSKLTVDKSRWQQGNVFSCSVMHEALHNHYTQKSLSLSPGAGGGGSGGGGSGGGGSQLQLQESGPGLVKPSETLSLTCTVSGGSIDTSSQYWAWIRQPPGKGLEWIGGIYFSGSTYQNPSLKSRVTTSVDTSKNQFSLRLSSMTAADTAVYYCARHRGIYFFDYWGQGTLVTVSSASTKGPSVFPLAPSSKSTSGGTAALGCLVKDYFPEPVTVSWNSGALTSGVHTFPAVLQSSGLYSLSSVVTVPSSSLGTQTYICNVNHKPSNTKVDKRVEPKSC
chain 2: B1 light with Y2F, N25I, W34Y, M38K, S51T, N75S, V96I
B3: 89B09 (FcFab) (antibody)
heavy: EPKSSDKTHTCPPCPAPPVAGPSVFLFPPKPKDTLMISRTPEVTCVVVDVSHEDPEVKFNWYVDGVEVHNAKTKPREEQYNSTYRVVSVLTVLHQDWLNGKEYKCAVSNKALPSSIEKTISKAKGQPREPQVYTLPPSREEMTKNQVSLTCLVKGFYPSDIAVEWESNGQPENNYKTTPPVLDSDGSFFLYSKLTVDKSRWQQGNVFSCSVMHEALHNHYTQKSLSLSPGAGGGGSGGGGSGGGGSEVQLVESGPGLVKPSETLSLTCTVSGVSIRSNGYYWGWIRQSPGKGLEWIGNMDYSGTYQNPSLTSRVTISGDASKNQFSLKLRSVTAADTAVYFCARERSNNWYPIDYWGQGTLVTVSSASTKGPSVFPLAPSSKSTSGGTAALGCLVKDYFPEPVTVSWNSGALTSGVHTFPAVLQSSGLYSLSSVVTVPSSSLGTQTYICNVNHKPSNTKVDKRVEPKSC
light: SSELTQDPAVSVALGQTVRITCQGDSVRRFFAHWYQQKPGQAPILVISGKDTRPSGIPDRFSGSISGNTASLTITGAQAEDEADYYCNSRDSSGYLVLFGGGTKLTVLGQPKAAPSVTLFPPSSEELQANKATLVCLISDFYPGAVTVAWKADSSPVKAGVETTTPSKQSNNKYAASSYLSLTPEQWKSHKSYSCQVTHEGSTVEKTVAPTECS
B4: 95B06 (FcFab) (antibody)
chain 1: EPKSSDKTHTCPPCPAPPVAGPSVFLFPPKPKDTLMISRTPEVTCVVVDVSHEDPEVKFNWYVDGVEVHNAKTKPREEQYNSTYRVVSVLTVLHQDWLNGKEYKCAVSNKALPSSIEKTISKAKGQPREPQVYTLPPSREEMTKNQVSLTCLVKGFYPSDIAVEWESNGQPENNYKTTPPVLDSDGSFFLYSKLTVDKSRWQQGNVFSCSVMHEALHNHYTQKSLSLSPGAGGGGSGGGGSGGGGSEVQLLESGGGLVQPGGSLRLSCAASGFTFSSYAMTWVRQAPGKGLEWVSDISGSGGSTKYADSVKGRFTISRDNPKNTLYLQMNSLRAEDTAVYYCAKDLGFYSTWDTDYWGQGTLVTVSSASTKGPSVFPLAPSSKSTSGGTAALGCLVKDYFPEPVTVSWNSGALTSGVHTFPAVLQSSGLYSLSSVVTVPSSSLGTQTYICNVNHKPSNTKVDKRVEPKSC
chain 2: DMQMTQSPSSLSASVGDRVTITCRASQGIRNDLDWYQQKPGKVPKRLIHAASSLQSGVPSRFSGSGSGTEFTLTISSLQPEDFVTYYCLQHNTYPWTFGQGTKLEIKRTVAAPSVFIFPPSDEQLKSGTASVVCLLNNFYPREAKVQWKVDNALQSGNSQESVTEQDSKDSTYSLSSTLTLSKADYEKHKVYACEVTHQGLSSPVTKSFNRGEC
B5: 88B06 (FcFab) (antibody)
chain 1: EPKSSDKTHTCPPCPAPPVAGPSVFLFPPKPKDTLMISRTPEVTCVVVDVSHEDPEVKFNWYVDGVEVHNAKTKPREEQYNSTYRVVSVLTVLHQDWLNGKEYKCAVSNKALPSSIEKTISKAKGQPREPQVYTLPPSREEMTKNQVSLTCLVKGFYPSDIAVEWESNGQPENNYKTTPPVLDSDGSFFLYSKLTVDKSRWQQGNVFSCSVMHEALHNHYTQKSLSLSPGAGGGGSGGGGSGGGGSEVQLLESGGGLVQPGGSLRLSCAASGFTFSNYAMSWVRQAPGKGLEWVSVISGSGDSTYYAESVKGRFTISRDNSKNTLYLQMTSLRAEDTAEYYCAKDRTPVYGLDVWGQGTTVTVSSASTKGPSVFPLAPSSKSTSGGTAALGCLVKDYFPEPVTVSWNSGALTSGVHTFPAVLQSSGLYSLSSVVTVPSSSLGTQTYICNVNHKPSNTKVDKRVEPKSC
chain 2: SYELTQPLSVSVALGQTARISCGGNNIGRKNVHWYQQKPGQAPVLVIYGDSNRPSGIPERFSGSNSGNTATLTIGRAQAGDEADYYCQVWDSSTVFGGGTKLTVLGQPKAAPSVTLFPPSSEELQANKATLVCLISDFYPGAVTVAWKADSSPVKAGVETTTPSKQSNNKYAASSYLSLTPEQWKSHKSYSCQVTHEGSTVEKTVAPTECS
B6: 98C01 (FcFab) (antibody)
heavy: EPKSSDKTHTCPPCPAPPVAGPSVFLFPPKPKDTLMISRTPEVTCVVVDVSHEDPEVKFNWYVDGVEVHNAKTKPREEQYNSTYRVVSVLTVLHQDWLNGKEYKCAVSNKALPSSIEKTISKAKGQPREPQVYTLPPSREEMTKNQVSLTCLVKGFYPSDIAVEWESNGQPENNYKTTPPVLDSDGSFFLYSKLTVDKSRWQQGNVFSCSVMHEALHNHYTQKSLSLSPGAGGGGSGGGGSGGGGSQVQLQESGPGLVKPSETLSLTCTVSGGSISSSSYYWGWIRQPPGKGLEWIGGIGSVDYSGNTYYKPSLKSRVTISVDTSKNQFSLKLSSVTAADTAVYHCARHRGIYFFDYWGQGTLVTVSSASTKGPSVFPLAPSSKSTSGGTAALGCLVKDYFPEPVTVSWNSGALTSGVHTFPAVLQSSGLYSLSSVVTVPSSSLGTQTYICNVNHKPSNTKVDKRVEPKSC
light: B1 light with L8P, M38K, T73S, V103L

What follows are binders tested against T1, recombinant human OX40L protein (R&D …) (assay: cell-based or functional assay).

Primary T cell activation assay IC50 [nM] | Binder
5.3 | B1
15.6 | B2
6.1 | B3
38 | B4
> 161 | B5

Each binder was assayed against T2, AVI-GST-His6-hOX40L (assay: cell-based or functional assay).

OX40L neutralization/OX40-HEK Reporter IC50 [nM] | Binder
5.4 | B6
5.7 | B1
5.5 | B2
4.7 | B3
30.8 | B4
102 | B5

What follows are binders tested against T1, recombinant human OX40L protein (R&D …) (assay: SPR steady state, Biacore T200; OX40L immobilised on CM5, FcFab in solution).
Protocol: Recombinant OX40L proteins (human OX40L protein, R&D systems, cat. #1054-OX; cynomolgus monkey OX40L, Novoprotein cat. #CP72) were immobilized onto Biacore CM5 sensor chips and anti-OX40L antibodies were bound to this surface at a range of concentrations. The response at steady state was measured with a Biacore T200 instrument (GE Healthcare) and plotted against the concentration of antibody and fit to a 1:1 binding model. The steady state KD was determined as the antibody concentration at a response equal to half the maximal response (Rₘₐₓ).
As with the IgG clones, binding affinity to human OX40L was determined for all twelve FcFabs using steady state affinity assay as described in section 1.1.7 of Example 1. […]

Kd [nM] | Binder
27.8 | B6
33 | B1
33.1 | B2
44.8 | B3
64.1 | B4
35.5 | B5
